Assay results published in PMC5632315 (Biochemistry, 2016).
No end group written: not given here.

Biological target: human calmodulin (CaM) construct possessing an N-terminal His6 tag (human, UniProt P0DP23 1-149)
Test: single-molecule TIRF microscopy

binding result: binds
Binder: C(Alexa Fluor 555 maleimide)KKKKKRFSFKKSFKLSGFSFKKNKK [Human MARCKS PIP2 binding domain peptide (MARCKS residues 151-175) with an added N-terminal cysteine]
